Results taken from the nanobody polyreactivity screen of Harvey et al. (2022).

Assay: yeast display, Sf9 membrane polyspecificity reagent, FACS + sequencing; frameworks hold sequencing errors
Summary of the method: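 A nanobody's polyreactivity label depends on the gate it was sorted from. Yeast display cells were stained with 10% biotinylated, detergent-solubilized Sf9 membrane reagent for 1 hour at 4 °C, enriched on streptavidin microbeads and sorted by FACS. The low and high (top ~1%) gates were set on anti-HA fluorescence for expression and streptavidin fluorescence for reagent binding.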

| Sequence | polyreactivity (PSR sort gate) |
| --- | --- |
| QVQLVESGGGLGQAGGSLRLSCAASGSIFAVNAMGWYRPAPGKERELVAGINSSGGSTHYADSVKGRFTISRDNAKNTVYFQMNSLKPEDTAVYYCAADWLRPAYYAVASLVKSDYWGQGTQVTVSS | low polyreactivity |
| QVQLVESGGGLGQAGGSLRLSCAASGSIFGRYTMGWYRQAPGKERELVAAITLRGGSTYYADSVKGRFTISRDNAKNTVYLQMNSLKPEDTAVYYCATDGWKQSAYDYWGQGTQVTVSS | low polyreactivity |
| QVQLVESGGGLGQAGGSLRLSCAASGSIFSAYAMGWYRPAPGKERELVAGISKRGGSTYYADSVKGRFTISRDNAKNTVYLQMNSLKAEDTAVYYCTAARYTVVTKLFDYWGQGTQVTVSS | high polyreactivity |
| QVQLVESGGGLGQAGGSLRLSCAASGSNFRPYAMGWYRPAPGKERELVAAISSSGGSTYYADSVKGRFTISRDNAKNTVYLQMNSLKPEDTAVYYCAAVSRSTWIHSRDYWGQGTQVTVSS | low polyreactivity |
| QVQLVESGGGLGQAGGSLRLSCAASGSTFKFYAMGWYRHAPGKERELVATISWTGGSTYYADSVKGRFTISRDNAKNTVYLQTNSLKPEDTAVYYCANRKTSYPVIWYTVNGRHYYWGQGTQVTVSS | low polyreactivity |
| QVQLVESGGGLGQAGGSLRLSCAASGSTFYLNAMGWYRQATGKERELVAAINSGDSTNYADSVKGRFTISRDNAKNTVYLQMNSLKPEDTAVYYCARDRFPSEGDYWGQGTQVTVSS | low polyreactivity |
| QVQLVESGGGLGQAGGSLRLSCAASGSTFYRNAMGWYRPAPGKERELVAAISGSDGSTYYADSVKGRFTISRDNAKNTVYLQMNSLKPEDTAVYYCVVAYARKYYYWGQGTQVTVSS | high polyreactivity |
| QVQLVESGGGLGQAGGSLRLSCAASGSTLNYYAMGWYTQAPGKERELVAAITWSGGSTSYADSVKGRFTISRDNAKNTVYLQMNSLKPEDTAVYYCATDFPTVQLYDTDWLSSDMGYWGQGTQVTVSS | low polyreactivity |
| QVQLVESGGGLGQAGGSLRLSCAASGYTFGKYAMGWYRPAPGKERELVAAISWSGGSTYYADSVKGRFTISRDNAKNTVYLQMNSLKPEDTAVYYCNIGYIGRYGYWGQGTQVTVSS | high polyreactivity |
| QVQLVESGGGLGQAGGSLRLSCADSGRTFYKYAMGWYRQSPGKERDLVAAISGSGGSTFYADSVKGRFTISRDNAKNTVYLQMNSLKPEDTAVYYCAKYLRPRIGYRYYYWVQGTQVTVSS | high polyreactivity |
| QVQLVESGGGLGQAGGSLRLSSAASGFTFRRNAMGWYRQAPGKERELVAAINVRDGSTYYADSVKGRFTISRDNAKNTVYLQMNSLKPEDTAVYYCAAEFFQGYYWYYYWGQGTQVTVSS | high polyreactivity |
| QVQLVESGGGLGQAGGSLRLSTAASGSNFRYNTMGWYRLGPGKERELVAAINISSSSTYYADSLKGRFTISRDNAKNTVYLQMNSLKPEVTAVYYCANRDYVPIATYENDDYWGQGTQVNVSS | low polyreactivity |
| QVQLVESGGGLGQAGGSLRVSCAASGGTLYYYAMGWYRQARGKERELVADITNSGSTNYADAVKGRFTISRDNAKNTVYLQMNSLKPEDTAVYSCAAAFSRRYDWGQGTQVTVSS | high polyreactivity |
| QVQLVESGGGLGQAVGRLRLSCAASGGTFPQYAMGWYRQAPGKEREFVADITSRGGTTYYADSVQGRFTISRDNAKNTVYLQMNSLKPEDTAVYYCAADNPADWWGLDYWGQGTQVTVSS | low polyreactivity |
| QVQLVESGGGLLHAGGSLRLSCAASGLIFSDYVMGWYRQAPWKERELVAGITTGGSTKYADSVKWRFTISRDNAKTTVYLQMNSLKPEDTAVYYCAVGKYNYRGSWDYYWGQGTQVTLSS | high polyreactivity |
| QVQLVESGGGLLQAGGILRLSCAASGFTFKYYVMGWYRQAPGKERELDAAITSSGSTYYADSVKGRFTISRDNAKNTVYLQINRLKPEDSAVYYCAAEGQSWQRWRYNYWGQGTQVTVSS | high polyreactivity |
| QVQLVESGGGLLQAGGSLPLSCPASGRIFYSYAMGWYRQAPGKERELVAGINWRGSNTYYADSVKGRFTISRDNAKNTVYFQMNSLKPEDTAVYYCSATYYQERRRGYWGQGSQVTVSS | high polyreactivity |
| QVQLVESGGGLLQAGGSLRFSWAASGFIFIINPMGWYRQAPGKERELVAGIRWSGGYKYYADSVKGRFTISRDNEKNTVYLQINSLKPEDTAVYYCNKDRGSLTLYTYDYWGQVTQVTVSS | low polyreactivity |
| QVQLVESGGGLLQAGGSLRISCAASGITFVYYVMGWYRQAPRKERELVAGISSGGSTYYADSVKGRFTISRDNAKNTVYLQMISLKPEDTAVYYCNAVDTYGLWRRYNYWGQGTQVTVSS | high polyreactivity |
| QVQLVESGGGLLQAGGSLRLICAASGRIFQTYAMGWYRQAPGKERELVARIRLSGGSTYSADSVKGRFTISRDNAKNTGYLQKNSQKPEDTAVYSCAARFSRARFTDPYYYWGQGTQVTVSS | high polyreactivity |
| QVQLVESGGGLLQAGGSLRLICAASGSIFGANTMGWYRPAPGKERELVAGITSGARTYYADSVKGRFTMSRDNAKNTVYLQMNSLQPEDTAVYYCAANYAWRRYGYWGNGTQVTVSS | high polyreactivity |
| QVQLVESGGGLLQAGGSLRLSCAASGFIFGRNAMGWYRQAPGKERELVAAITRSGGSTYYADSVKGRFTISRDNAKNTVYLQMISLKTEDTAVYYCAKGDFYWGVFRVGIRDDYWGQGTQVNVSS | high polyreactivity |

| Sequence | polyreactivity (PSR sort gate) |
| --- | --- |
| QVQLVESGGGLLQAGGSLRLSCAASGFTIQRYAMGWYRQAPGKERELVAAITSGGSTYYADSVKGRFTISRDNAKNTVYLQMNSLKPEDTAVYYCATRAVWSSWGRRYDSWGQGTQVTVSS | high polyreactivity |
| QVQLVESGGGLLQAGGSLRLSCAASGIIFGRYTMGWYRKAPGKETELVAAITSSGITYYADSVKGRFTISRDNAKNTVYLQMNSLKPEDTAVYYCYADYSIPGYYWPYDYWGQGTQVTVSS | low polyreactivity |
| QVQLVESGGGLLQAGGSLRLSCAASGRIFIANAMGWNRQAPRKERDLVAAITSDGGTNYADSVKGRFTISRDNAKITVYLQLISLKPEDTAVYYCAATYQIGYYYVWEYDYWGQGTQLTVSS | low polyreactivity |
| QVQLVESGGGLLQAGGSLRLSCAASGRIFPYYAMGWYRQAPGKERVLLAAISQSGGRTYYADSVKGRFTISRDNAKNTVFLQMNSLKPEDTAVYYCNADTYSSGYDYWGQGTQVTVSS | high polyreactivity |
| QVQLVESGGGLLQAGGSLRLSCAASGRIYSIYAMGWYRQAPGKERELVASITGSGGTTYYADSVKGRFTISRDIAKNTVYLQMNSLKPEDTAVYYCAAVFYGFVGYYNEDYWGQGSQVTVSS | low polyreactivity |
| QVQLVESGGGLLQAGGSLRLSCAASGRTFLGYAMGWYIQAPGKERELVAAISWDGTSTYYADSLKGRFTISRDNAKNTVYLPMNSLKPEDTAVYYCAAQLTDYQSKTLSYDYWGQGTQVTVSS | low polyreactivity |
| QVQLVESGGGLLQAGGSLRLSCAASGRTFRAYTMGWYRQAPGKERELVAAISTPGGSTYYADSVKGRFTISRDNAKNTVYLQMNSLKPEDSAVYYCAAGTFYYWLSYDYWGQGTQVTVSS | low polyreactivity |
| QVQLVESGGGLLQAGGSLRLSCAASGRTFYHYTMGWYRQAPGKERELVARITRRVGSTYYADSVKGRFTISRDNAKNIVYLQMNSLKPEDTAVYYCNSKSGVYRYLLDYWGQGTQVTVSS | high polyreactivity |
| QVQLVESGGGLLQAGGSLRLSCAASGRTIVQNAMGWYRQAPGKERELVASIRYRDGSTYYADSVKGRFTISRDNAKNTVYLQMNSLKTEDTAVYYCAVRYYRKYYYSPFDYWGQGTQVTVSS | high polyreactivity |
| QVQLVESGGGLLQAGGSLRLSCAASGSIFGDNAMVWYRQAPWKERDLVATISSSDASTYYADSVKGRFTISRDNAKNTVNLQMNSLKPEDTAVYYCAKEVTAGYHVWYDYWGQGTQVTVSS | low polyreactivity |
| QVQLVESGGGLLQAGGSLRLSCAASGSIFGQYAMGWYIQAPGKERELVAAISTRGGSTRYADSVKGRFTISRDNAKNTVYLQMNSLKPEDTAVYYCAARVPYIRHLAVDYWGQGTQVTVSS | high polyreactivity |
| QVQLVESGGGLLQAGGSLRLSCAASGSIFGSYVMGWYRQAPGKERELVAAITASGGSTYYADSVKGRFTISRDTAKNTVYLQMNSLKPEDTAVYYCATKRTWPVGEMYYWGQGTQVTVSS | high polyreactivity |
| QVQLVESGGGLLQAGGSLRLSCAASGSIFRRNAMGWYRQAPGKERELVAAIRRGGSTNYADSVKGRFTISRDNAKNTVYLQMNSLKPEDTAVYYCAARGGSSGFYYWGQGTQVTVSS | high polyreactivity |
| QVQLVESGGGLLQAGGSLRLSCAASGSIFTYYAMGWYRQAPGKEREFVAAINYGGGSTYYADSVKGRFTISRDNAKNTVYLQMNSQKPEDTAVYYCNARTFGPNGKHRYGYWGQGTQVSVSS | high polyreactivity |
| QVQLVESGGGLLQAGGSLRLSCAASGSIIFYYAMGWYRQAPGKEREFVAAITRSGVRTYYADSGKGRFTISRDNAKNTVYLQMNSLKPEDNAVYYCHADYGFYRPVLMGYWGQGTQVTVSS | low polyreactivity |
| QVQLVESGGGLLQAGGSLRLSCAASGSTFRAYTMGGYRPAPGKVREFVASITRSGGSTNYADSVKGRFTISRDNAKNTVYLQMNSLKPEDTAGYYCAAGYWRIHYQHFRSRDYWGQGTQVTVSS | high polyreactivity |
| QVQLVESGGGLLQAGGSLRLSCAASGSTFVTNDMGWYRPAPGKERELVAAISSGSSTNYADSVKGRFTISRDNAKNSVYVHMNSLKPEDTAVYYCAADSLKRYDYWGQGTQVTVSS | low polyreactivity |
| QVQLVESGGGLLQAGGSLRLSCAATGFIFWYYAMGWYRQAPGKEREFVADISSGGSTNYADSVKGRFTISRDNAKNTVYLQMNSLKPEDTAVYDCSKDNYPYHSTVLAVIYDYWGHGTQVTVSS | low polyreactivity |
| QVQLVESGGGLLQAGGSLRLSCADSGSILYTNAMGWYRQAPGKERELVAASTTSGASTIYADSVKGRFTISRENAKNTVYLQLNSLKPEDTAVYYCAAPSRYRYYLGNYWGQGTQVTVSS | high polyreactivity |
| QVQLVESGGGLLQAGGSLRLSCADSGSTFGANSLRWYIQAPGKEREFVAAISGSGTTTYYADSVKGRFTISRDNAKNTFYLQMHRLKPEDTAVYYCDKTRIAHWLEYWGQGTQVTVSS | low polyreactivity |
| QVQLVESGGGLLQAGGSLRLSCSASGFIFHYYARGLYRQAPGKDRELVAAIRSGGSTYYADSVKGRFTISRDNAKNTVYLQMNSLKPEHTEVYFCNGRFYSRGYRYYYWGQGTQVTVSS | high polyreactivity |
